Test results taken from the supplement of paper PMC11196671.
± gives the standard deviation of the averaged measurements.

Assay: PET hydrolysis product formed (TPA+MHET+BHET, UV-Vis) per mg enzyme (mmol/mg enzyme); higher = more PET depolymerisation activity; extreme values may be limits of the assay
Conditions: 24 h
Experimental: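 Purified PET hydrolases, 2.5 ug enzyme on 3.5 mg amorphous PET film (aFilm) or crystalline PET powder (cryPow) in 0.5 mL of 50 mM buffer (NaCitrate pH 4.5/5.5, NaPhosphate 6.5/7.5, glycine 8.5/9.5) at 60 or 70 C with shaking for 24 h. Total aromatic product by UV-Vis (260/280 nm, blank-subtracted, normalised per mg enzyme) and individual TPA, MHET, BHET concentrations by UHPLC-DAD at 240 nm; duplicate reactions.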

[1] = PET substrate: aFilm, 60 °C, pH 4.5
[2] = PET substrate: aFilm, 60 °C, pH 5.5
[3] = PET substrate: aFilm, 60 °C, pH 6.5
[4] = PET substrate: aFilm, 60 °C, pH 7.5
[5] = PET substrate: aFilm, 60 °C, pH 8.5
[6] = PET substrate: aFilm, 60 °C, pH 9.5
[7] = PET substrate: aFilm, 70 °C, pH 4.5
[8] = PET substrate: aFilm, 70 °C, pH 5.5
[9] = PET substrate: aFilm, 70 °C, pH 6.5
[10] = PET substrate: aFilm, 70 °C, pH 7.5
[11] = PET substrate: aFilm, 70 °C, pH 8.5
[12] = PET substrate: aFilm, 70 °C, pH 9.5
[13] = PET substrate: cryPow, 60 °C, pH 4.5
[14] = PET substrate: cryPow, 60 °C, pH 5.5
[15] = PET substrate: cryPow, 60 °C, pH 6.5
[16] = PET substrate: cryPow, 60 °C, pH 7.5
[17] = PET substrate: cryPow, 60 °C, pH 8.5
[18] = PET substrate: cryPow, 60 °C, pH 9.5
[19] = PET substrate: cryPow, 70 °C, pH 4.5
[20] = PET substrate: cryPow, 70 °C, pH 5.5
[21] = PET substrate: cryPow, 70 °C, pH 6.5
[22] = PET substrate: cryPow, 70 °C, pH 7.5
[23] = PET substrate: cryPow, 70 °C, pH 8.5
[24] = PET substrate: cryPow, 70 °C, pH 9.5

Sequence | PET hydrolysis product formed [1] | PET hydrolysis product formed [2] | PET hydrolysis product formed [3] | PET hydrolysis product formed [4] | PET hydrolysis product formed [5] | PET hydrolysis product formed [6] | PET hydrolysis product formed [7] | PET hydrolysis product formed [8] | PET hydrolysis product formed [9] | PET hydrolysis product formed [10] | PET hydrolysis product formed [11] | PET hydrolysis product formed [12] | PET hydrolysis product formed [13] | PET hydrolysis product formed [14] | PET hydrolysis product formed [15] | PET hydrolysis product formed [16] | PET hydrolysis product formed [17] | PET hydrolysis product formed [18] | PET hydrolysis product formed [19] | PET hydrolysis product formed [20] | PET hydrolysis product formed [21] | PET hydrolysis product formed [22] | PET hydrolysis product formed [23] | PET hydrolysis product formed [24]
QTNPYARGPNPTAASLEASAGPFTVRSFTVSRPSGYGAGTVYYPTNAGGTVGAIAIVPGYTARQSSIKWWGPRLASHGFVVITIDTNSTFDYPSSRSSQQMAALRQVASLNGDSSSPIYGKVDTARMGVMGHSMGGGASLRSAANNPSLKAAIPQAPWDSQTNFSSVTVPTLIFACENDSIAPVNSHALPIYDSMSRNAKQFLEINGGSHSCANSGNSNQALIGKKGVAWMKRFMDNDTRYSTFACENPNSTAVSDFRTANCS [DuraPETase] | 0 | 0 | 0 | 0.0929 ± 0.001 | 0.0536 ± 0.017 | 0.126 ± 0.074 | 0 | 0 | 0 | 0.00371 ± 0.0053 | 0.00439 ± 0.0062 | 0.0201 ± 0.0018 | 0 | 0 | 0.0167 ± 0.003 | 0.0809 ± 0.0013 | 0.0578 ± 0.007 | 0.0891 ± 0.015 | 0 | 0 | 0 | 0.0465 ± 0.014 | 0.0236 ± 0.0064 | 0
SNPYQRGPNPTRSALTADGPFSVATYTVSRLSVSGFGGGVIYYPTGTSLTFGGIAMSPGYTADASSLAWLGRRLASHGFVVLVINTNSRFDGPDSRASQLSAALNYLRTSDPSAVRARLDANRLAVAGHSMGGGATLRIAEQNPSLKAAIPLTPWHTQKTFNTSVPVLIVGAEADTVAPVSQHAIPFYQNLPSTTPKVYVELCNASHIAPNSNNAAISVYTISWMKLWVDNDTRYRQFLCNVNDPALCDFRTNNRHCQ [LCC-ICCG DAQI] | 0.0166 ± 0.00087 | 0.125 ± 0.026 | 0.232 ± 0.055 | 1.37 ± 0.25 | 0.167 ± 0.0061 | 0.87 ± 0.012 | 0 | 0.0923 ± 0.0019 | 0.205 ± 0.025 | 2.08 ± 0.32 | 0.1 ± 0.021 | 0.859 ± 0.11 | 0.0113 ± 0.00097 | 0.0632 ± 0.0075 | 0.0902 ± 0.0042 | 0.173 ± 0.029 | 0.0738 ± 0.0022 | 0.1163 ± 0.00055 | 0 | 0.0244 ± 0.0029 | 0.0648 ± 0.012 | 0.193 ± 0.02 | 0.0669 ± 0.0013 | 0.132 ± 0.011
SNPYQRGPNPTRSALTADGPFSVATYTVSRLSVSGFGGGVIYYPTGTSLTFGGIAMSPGYTADASSLAWLGRRLASHGFVVLVINTNSRFDGPDSRASQLSAALNYLRTSSPSAVRARLDANRLAVAGHSMGGGGTLRIAEQNPSLKAAVPLTPWHTDKTFNTSVPVLIVGAEADTVAPVSQHAIPFYQNLPSTTPKVYVELCNASHIAPNSNNAAISVYTISWMKLWVDNDTRYRQFLCNVNDPALCDFRTNNRHCQ [LCC-ICCG] | 0.00176 ± 0.0035 | 0.126 ± 0.044 | 0.327 ± 0.047 | 1.42 ± 0.13 | 0.142 ± 0.024 | 0.885 ± 0.11 | 0 | 0.109 ± 0.03 | 0.165 ± 0.029 | 1.92 ± 0.32 | 0.107 ± 0.027 | 0.901 ± 0.076 | 0 | 0.0652 ± 0.012 | 0.09 ± 0.013 | 0.184 ± 0.032 | 0.0728 ± 0.0063 | 0.125 ± 0.028 | 0 | 0.031 ± 0.0079 | 0.0781 ± 0.017 | 0.2 ± 0.024 | 0.0667 ± 0.0095 | 0.131 ± 0.018
SNPYQRGPNPTRSALTADGPFSVATYTVSRLSVSGFGGGVIYYPTGTSLTFGGIAMSPGYTADASSLAWLGRRLASHGFVVLVINTNSRFDGPDSRASQLSAALNYLRTSSPSAVRARLDANRLAVAGHSMGGGGTLRIAEQNPSLKAAVPLTPWHTDKTFNTSVPVLIVGAEADTVAPVSQYAIPFYQNLPSTTPKVYVELCNASHIAPNSDNAAISVYTISWMKLWVDNDTRYRQFLCNVNDPALCDFRTNNRHCQ [LCC-A2] | 0.0551 ± 0.011 | 0.331 ± 0.024 | 0.484 ± 0.058 | 2.22 ± 0.15 | 0.195 ± 0.039 | 0.963 ± 0.16 | 0 | 0.181 ± 0.01 | 0.361 ± 0.048 | 2.87 ± 0.14 | 0.171 ± 0.012 | 0.934 ± 0.039 | 0.0357 ± 0.0049 | 0.0766 ± 0.0022 | 0.152 ± 0.0036 | 0.261 ± 0.063 | 0.0909 ± 0.014 | 0.195 ± 0.032 | 0 | 0.0541 ± 0.0076 | 0.139 ± 0.014 | 0.334 ± 0.043 | 0.0995 ± 0.007 | 0.205 ± 0.0083
SNPYQRGPNPTRSALTADGPFSVRTYTISRLSVSGFGGGVIYYPTGTSLTFGGIAMSPGYTADASSLAWLGRRLASHGFVVLVINTNSRFDGPDSRASQLSAALNYLRTSSPSAVRARLDANRLAVAGHSMGGGGTLRIAEQNPSLKAAVPLTPWHTDKTFNTSVPVLIVGAEADTVAPVSQHAIPFYQNLPSTTPKVYVELCNASHIAPNSPNAAISVYTISWMKLWVDNDTRYRQFLCNVNDPALCDFRTNNRHCQ [LCC-ICCG RIP] | 0.029 ± 0.018 | 0.0802 ± 0.0094 | 0.202 ± 0.029 | 0.775 ± 0.2 | 0.127 ± 0.0045 | 0.684 ± 0.33 | 0 | 0.103 ± 0.02 | 0.181 ± 0.01 | 1.26 ± 0.084 | 0.1 ± 0.01 | 0.65 ± 0.11 | 0.0235 ± 0.002 | 0.0628 ± 0.0065 | 0.082 ± 0.00092 | 0.113 ± 0.0013 | 0.0714 ± 0.033 | 0.0784 ± 0.011 | 0 | 0.0369 ± 0.0017 | 0.0809 ± 0.0019 | 0.162 ± 0.034 | 0.0631 ± 0.0059 | 0.0938 ± 0.0042
SNPYQRGPNPTRSALTATGPFSVATYTVSRLLVSGFGGGVIYYPTGTSLTFGGIAMSPGYTADASSLAWLGRRLASHGFVVLVINTNSRFDGPDSRARQLSAALNYLRTSSPSAVRARLDANRLAVAGHSMGGGGTLRIAEQNPSLKAAVPLTPWHPDKTFNTSVPVLIVGAQADTVAPVSQHAIPFYQNLPSTTPKVYVELCNASHIAPNSPNAAISVYTISWMKLWVDNDTRYRQFLCNVNDPALCDFRTNNRHCQ [LCC-ICCG I6M] | 0.0326 ± 0.002 | 0.147 ± 0.082 | 0.223 ± 0.032 | 1.32 ± 0.091 | 0.169 ± 0.013 | 0.577 ± 0.0065 | 0 | 0.105 ± 0.017 | 0.0963 ± 0.031 | 0.788 ± 0.054 | 0.0775 ± 0.0074 | 0.402 ± 0.064 | 0.01995 ± 0.00015 | 0.0583 ± 0.0049 | 0.0726 ± 0.0072 | 0.0808 ± 0.017 | 0.0461 ± 0.015 | 0.0598 ± 0.019 | 0 | 0.0302 ± 0.0017 | 0.05 ± 0.0014 | 0.122 ± 0.028 | 0.0495 ± 0.023 | 0.0468 ± 0.0039
